Source: the supplement of paper PMC10567573

B1: TRIM39 (parent)
chain: CKACITRWWEDLERDFPCPVCRKT

Variants of: B1
Experiment: protein stability index of a GFP-peptide fusion (GPS, HEK-293T) (PSI 1-6); higher = more stable
Conditions: c terminus: a fixed tail appended
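Also: lentivirally expressed fusions sorted by FACS into six bins by GFP to DsRed ratio, PSI derived from sequencing read proportions per bin multiplied by bin number.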

Variant	protein stability index
P19Q	3.12
P19R	2.82
P19W	2.1
P19T	3.35
P19I	2.3
P19H	3.35
P19M	2.88
P19G	2.86
P19C	2.26
P19V	2.94
P19L	2.65
P19D	3.85
P19Y	2.27
P19N	3.29
P19A	3.15
P19F	1.95
P19E	3.55
P19K	2.69
P19S	3.47
W9K	4.86
W9L	3.87
W9E	4.24
W9V	4.31
W9H	5.16

Variant	protein stability index
W9G	4.55
W9A	4.23
W9N	4.52
W9Q	4.69
W9M	4.11
W9I	3.65
W9C	4.53
W9D	4.55
W9S	4.56
W9R	4.47
W9T	4.25
W9Y	3.75
W9P	4.3
W9F	4.07
I5K	3.88
I5A	4.25
I5D	4.36
I5H	4.49
I5N	4.12
I5S	4.22
I5R	3.93
I5V	3.35
I5Q	4.31
I5W	3.99

Variant	protein stability index
I5C	4.63
I5L	4.25
I5M	4.22
I5Y	4.39
I5F	4.22
I5E	4.6
I5P	3.86
I5G	3.86
I5T	3.99
V20F	3.78
V20N	4.37
V20D	4.55
V20W	3.56
V20A	4.24
V20M	3.37
V20R	3.99
V20G	3.39
V20C	3.44
V20I	4.22
V20T	4.4
V20H	3.88
V20S	4.3
V20K	4.19
V20E	4.77

Variant	protein stability index
V20L	4.16
V20Y	3.73
V20P	2.36
V20Q	4.09
T6A	3.64
T6G	4.36
T6R	3.42
T6V	2.71
T6D	4.27
T6Y	3.33
T6Q	3.77
T6M	3.27
T6S	3.62
T6F	2.95
T6K	3.57
T6N	4.38
T6P	3.5
T6W	3.36
T6I	3.01
T6C	2.57
T6E	4.03
T6L	3.58
T6H	3.28
C18D	1.71

Variant	protein stability index
C18N	1.24
C18W	1.11
C18I	1.79
C18F	2.34
C18Q	2.53
C18P	2.25
C18S	1.88
C18H	1.54
C18L	2.41
C18Y	2.02
C18T	1.39
C18K	1.38
C18M	1.42
C18V	1.28
C18R	2.02
C18E	1.94
C18G	1.77
R22E	4.37
R22D	3.75
R22A	4.36
R22C	3.74
R14C	4.09
R14H	4.23
R14L	3.4

Variant	protein stability index
R14V	3.76
R14F	3.69
R14W	3.52
R14S	4.4
R14T	4.63
R14A	4.19
R14Q	3.78
R14Y	3.48
R14E	4.59
R14K	4.03
R14D	3.99
R14N	3.83
R14G	4.59
R14P	3.79
R14I	3.26
R14M	4.27
D15Y	2.84
D15C	2.09
D15P	3.87
D15F	3.24
D15A	3.32
D15R	2.46
D15Q	3.36
D15M	2.37

Variant	protein stability index
D15E	3.54
D15S	3.79
D15T	3.06
D15W	2.72
D15N	3.73
D15L	2.26
D15H	2.72
D15V	3
D15G	3.31
D15I	2.43
D15K	2.98
W8I	4.26
W8A	4.07
W8D	4.42
W8T	4.09
W8M	4.62
W8P	5.08
W8V	4.73
W8L	4.19
W8E	4.73
W8C	4.15
W8K	4.6
W8N	5.12
